Reference: patent US20220242963A1, “B-CELL ACTIVATING CD73 ANTIBODIES” (CORVUS PHARMACEUTICALS, INC., priority 2018, published 2022)
Where “and” joins values, the source holds several entries; their conditions need not be identical. Equal entries are not always repeated.

Tests used:
CD73 [1] = biological target: T1, CD73 (Homo sapiens, UniProt P21589); experiment: CD73 enzymatic activity in MDA-MB-231 xenograft model; format: in vivo; settings: MDA-MB-231 human TNBC xenograft model; FIG. 1F
T1 construct: endogenous in cells; host or cells: Whole blood of cancer patients (CD73+ CD8 T cells)
T1 sequence (P21589 27-549): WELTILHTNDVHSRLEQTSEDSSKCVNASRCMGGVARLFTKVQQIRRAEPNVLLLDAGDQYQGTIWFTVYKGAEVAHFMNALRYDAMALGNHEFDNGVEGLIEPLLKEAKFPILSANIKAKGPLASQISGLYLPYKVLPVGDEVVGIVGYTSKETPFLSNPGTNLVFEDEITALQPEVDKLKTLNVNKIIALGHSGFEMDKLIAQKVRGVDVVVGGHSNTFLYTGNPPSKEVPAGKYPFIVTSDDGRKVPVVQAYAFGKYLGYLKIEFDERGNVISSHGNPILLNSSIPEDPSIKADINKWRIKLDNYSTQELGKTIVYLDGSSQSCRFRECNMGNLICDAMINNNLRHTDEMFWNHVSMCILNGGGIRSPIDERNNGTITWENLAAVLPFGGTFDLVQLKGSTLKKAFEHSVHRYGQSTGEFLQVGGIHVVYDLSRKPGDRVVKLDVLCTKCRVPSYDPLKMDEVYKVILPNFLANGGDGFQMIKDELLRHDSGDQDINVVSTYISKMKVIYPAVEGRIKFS
Text: (§1) FIG. 1A provides a schematic of CD73 structure. […] Each symbol represents an independent donor.

[2] = Phase 1/1B clinical trial: serum levels of free CPI-006 by ELISA; format: in vivo, human
Experimental: FIGS. 3A-3D show the pharmacokinetics/pharmacodynamics and CD73 receptor occupancy of CPI-006 after a first infusion in human patients. […] The dotted line marks one-hundred percent occupancy CD73 receptor occupancy.
(§2) With reference to Table 1, serum samples were collected from patients treated with CPI-006 alone (i.e., monotherapy) and levels of free CPI-006 were measured by ELISA, as shown in FIG. 3A. Whole blood samples from patients treated with CPI-006 alone were fixed and receptor occupancy was measured by flow cytometry gating on CD73+CD8 T cells, as shown in FIG. 3B. As illustrated in FIGS. 3A-3D, receptor exposure to CPI-006 increases and clearance decreases with increasing doses of CPI-006, and CIP-006 is detectable for 21 days after administration of a single dose of 6 mg/kg or higher. […] Other results from the study are described below and in Table 4. BLQ is below limit of quantification. TBD is to be determined.

solid tumors = experiment: Phase 1/1B clinical trial: disease control and tumor size; format: in vivo, human
Text: FIGS. 6A-6B show cancer patients being treated with various doses of CPI-006 alone (FIG. 6A) or a combination therapy of CPI-006 and ciforadenant (FIG. 6B). A cycle is once every 21 days. Disease assessment occurred every 3-4 cycles. […] HDNCK refers to head and neck cancer. mCRPC refers to metastatic castration-resistant prostate cancer. BLADD refers to bladder cancer. PANC refers to pancreatic cancer. COLORECT refers to colorectal cancer. RCC refers to renal cell carcinoma. SD indicates stable disease and PD indicates progressive disease.
The highest line at day 10 represents 1 mg/kg, the second highest line at day 10 represents 3 mg/kg, the second lowest line at day 10 represents 6 mg/kg, and the lowest line at day 10 represents 12 mg/kg.
Cancer patients treated with CPI-006 monotherapy or a combination therapy of CPI-006 and ciforadenant were assessed for disease control.

CD73 [3] = biological target: T1, CD73; experiment: Phase 1/1B clinical trial: CD73 receptor occupancy in peripheral blood by flow cytometry; format: in vivo; settings: for sustained CD73 receptor occupancy in peripheral blood: once every 21 days
Experimental: FIGS. 3A-3D show the pharmacokinetics/pharmacodynamics and CD73 receptor occupancy of CPI-006 after a first infusion in human patients. […] The dotted line marks one-hundred percent occupancy CD73 receptor occupancy. […]
as §2

PBMC = experiment: T cell proliferation and IFN-gamma secretion of healthy donor PBMC cultured with AMP; format: cell-based, human; settings: CPI-006 at 500 nM, 3 mM AMP, anti-CD3 and anti-CD28, IL-2; FIGS. 1C-1D
Experimental: as §1
MDA-MB-231 cells (e.g., available at ATCC® as HTB-26™) were incubated with a human IgG1 isotype control, CPI-006, CPX-016, or adenosine 5′-(α,β-methylene)diphosphate (also known as APCP, which is a small molecule inhibitor of CD73 enzymatic activity), prior to addition of 250 μM of adenosine monophosphate (AMP). Phosphate levels were measured in the cell culture supernatant using the Sensolyte Malachite Green assay kit. Peripheral blood mononuclear cells (PBMC) were isolated from healthy donors and labeled with CellTrace™ Violet (ThermoFisher Scientific) prior to culture with 1 μg/mL anti-CD3 and anti-CD28, 200 units/mL IL-2, 3 mM AMP and indicated treatments (CPI-006 at 500 nM; CPX-016 at 500 nM; human IgG1 isotype control at 890 nM). T cell proliferation was measured by Cell Trace Violet dilution and was defined by gating relative to unstimulated PBMC (FIG. 1C). IFN-gamma production was measured in cell culture supernatants by AlphaLISA (FIG. 1D). Results shown in FIGS. 1B-D illustrate that inhibition of CD73 activity has an agonistic effect on immunomodulatory activity.

[4] = clinical data, 1, 3, and 6 mg/kg
[5] = with increasing doses of CPI-006, first infusion, FIGS. 3A-3D
[6] = pre-dose versus 30 minutes after administration, FIG. 3D

- sustained CD73 receptor occupancy in peripheral blood (CD73 [3]; 1 mg/kg and 3 mg/kg doses): not
- CD73 receptor occupancy on peripheral B cells (CD73 [3]; 3 mg/kg, patients 4-6 (Pancreatic, Pancreatic, Prostate)): 88.12% and 74.57% and 58.19%
- sustained CD73 receptor occupancy in peripheral blood (CD73 [3]; 6 mg/kg and 12 mg/kg doses): sustained CD73 receptor occupancy
- CD73 receptor occupancy on peripheral B cells (CD73 [3]; 6 mg/kg, patients 7-9 (Colorectal, Prostate, SCHN)): 97.90% and 98.31% and 101.60%
- receptor occupancy dose dependence (CD73 [3]; [4]): dose proportional
- CPI-006 binding site on cell surface CD73 (free CD73) (CD73 [3]; [6]): occupied
- total cell surface CD73 (CD73 [3]; [6]): remains unchanged
B1: CPI-006: humanized CD73 antibody, wherein the light chain is SEQ ID NO:8 and the heavy chain is SEQ ID NO:7; IgG1 Fcγ receptor-deficient (antibody, V domains shown)
VH: QVQLVQSGAEVEKPGASVKVSCKASGYTFTSYWITWVRQAPGQGLEWMGDIYPGSGNTNYNEKFKTRVTITADKSTSTAYMELSSLRSEDTAVYYCAKEGGLTTEDYALDYWGQGTLVTV
VL: EIVLTQSPATLSLSPGERATLSCRASKNVSTSGYSYMHWYQQKPGQAPRLLIYLASNLESGIPPRFSGSGYGTDFTLTINNIESEDAAYYFCQHSRELPFTFGQGTKVEIK
- CD73 enzymatic activity in tumor xenograft (CD73 [1]): blocks CD73 enzymatic activity
- Serum CPI-006 at C1D8 ([2]; 1 mg/kg, patients 1-3, BLQ is below limit of quantification): BLQ
- Serum CPI-006 at C1D8 ([2]; 6 mg/kg, patient 7 (Colorectal)): 23.60 µg/mL
- PK dose dependence [2, 4]: dose proportional
- time detectable in serum after administration ([2]; single dose of 6 mg/kg or higher): 21 days
- clearance [2, 5]: decreases
- exposure to CPI-006 [2, 5]: increases
- size of a prostate tumor (solid tumors; after 2 cycles of treatment, i.e., after 42 days, FIG. 7E): reduction in the size
- disease control (solid tumors; cancer patients, cycle once every 21 days, FIGS. 6A-6B): higher doses of CPI-006 monotherapy provide longer term disease control
- target lesion (solid tumors; one metastatic prostate cancer patient, 6 mg/kg monotherapy, treatment ongoing through 11 cycles, FIG. 7E): decrease in the target legion
- adenosine-mediated immunosuppression (T-cell proliferation, IFN-gamma secretion) (PBMC): relieves adenosine-mediate immunosuppression
